Results published in patent publication US20250179142A1 (SUNSHINE LAKE PHARMA, published 2025).
Substitutions are numbered along the chain they refer to. Names and notes keep the numbering of the source. Values belong to the binder of their own block, whether it stands above or below them.

How the values were obtained:
[1] = molecular target: glucagon-like peptide-1 receptor (UniProt P43220 24-463, limits assumed); test: cell-based or functional assay
[2] = molecular target: the molecule itself; test: SEC (size exclusion HPLC), self-association of the Fc into a homodimer
Experimental: (§1) In this example, the effects of introducing different mutations on the structural properties of Fc were tested, and the test results of some mutants are shown in Table 5. Test steps include:
(§2) Molecular cloning method was used to insert Fc nucleic acid sequence into mammalian cell expression vector, and ExpiCHO Fectamine™ CHO Transfection Kit (ThermoFisher Scientific) was used for transient transfection and expression in CHO-S cells; after purification by Protein A column, the target protein was obtained, and the target protein was analyzed by size exclusion high performance liquid chromatography (SEC). The main principle of SEC analysis is based on the molecular weight and three-dimensional structure of the analyte (such as protein). Generally, analytes with larger molecular weights will pass through the chromatographic column more quickly, so they have a shorter column retention time. On the contrary, analytes with smaller molecular weights have longer retention times. So SEC can be used to analyze the aggregation of protein molecules.

[3] = molecular target: the molecule itself; test: SEC (size exclusion HPLC), self-association of the Fc
Experimental: as §1, §2

GLP-1 activity (EC50, nM): intracellular cAMP in HEK293 cells with high GLP-1R expression [1]: 0.084 nM
B1: GLP-1-Fc-GDF15 fusion protein D8 (Fc fusion)
chain: HGEGTFTSDVSSYLEEQAAKEFIAWLVKGGGGGGGSGGGGSGGGGSAPEAAGGPSVFLFPPKPKDTLMISRTPEVTCVVVDVSQEDPEVQFNWYVDGVEVHNAKTKPREEQFNSTYRVVSVLTVLHQDWLNGKEYKCKVSNKGLPSSIEKTISKAKGQPREPQVYTLPPSQEEMTKNQVSLTCLVKGFYPSDIAVEWESNGQPENNYKTTPPVLDSDGSFFLYSRLTVDKSRWQEGNVFSCSVMHEALHNHYTQESLSLSLGGGGGSGGGGSAPAPAPAPAPAPAPAPAPAPGGGGSGGGGSDHCPLGPGRCCRLHTVRASLEDLGWADWVLSPREVQVTMCIGACPSQFRAANMHAQIKTSLHRLKPDTVPAPCCVPASYNPMVLIQKTDTGVSLQTYDDLLAKDCHCI

GLP-1 activity (EC50, nM): intracellular cAMP in HEK293 cells with high GLP-1R expression [1]: 0.1 nM
B2: GLP-1-Fc-GDF15 fusion protein D9 (Fc fusion)
chain: B1 chain with E255Q

B3: IgG4 Fc (AA, K439E) (other)
chain: EAAGGPSVFLFPPKPKDTLMISRTPEVTCVVVDVSQEDPEVQFNWYVDGVEVHNAKTKPREEQFNSTYRVVSVLTVLHQDWLNGKEYKCKVSNKGLPSSIEKTISKAKGQPREPQVYTLPPSQEEMTKNQVSLTCLVKGFYPSDIAVEWESNGQPENNYKTTPPVLDSDGSFFLYSRLTVDKSRWQEGNVFSCSVMHEALHNHYTQESLSLSLG
binding result [2]: binds

B4: IgG4 Fc (AA, F405Q/Y407E) (other)
chain: B3 chain with F173Q, Y175E, E207K
binding result [3]: no binding

B5: IgG4 Fc (AA, K439D) (other)
chain: B3 chain with E207D
binding result [2]: binds

GLP-1 activity (EC50, nM): intracellular cAMP in HEK293 cells with high GLP-1R expression [1]: 0.118 nM
B6: GLP-1-Fc-GDF15 fusion protein D11 (Fc fusion)
chain: HGEGTFTSDVSSYLEEQAAKEFIAWLVKGGGGGGGSGGGGSGGGGSEAAGGPSVFLFPPKPKDTLMISRTPEVTCVVVDVSQEDPEVQFNWYVDGVEVHNAKTKPREEQFNSTYRVVSVLTVLHQDWLNGKEYKCKVSNKGLPSSIEKTISKAKGQPREPQVYTLPPSQEEMTKNQVSLTCLVKGFYPSDIAVEWESNGQPENNYKTTPPVLDSDGSFFLYSRLTVDKSRWQEGNVFSCSVMHEALHNHYTQESLSLSLGGGGGSGGGGSAPAPAPAPAPAPAPAPAPAPGGGGSGGGGSDHCPLGPGRCCRLHTVRASLEDLGWADWVLSPREVQVTMCIGACPSQFRAANMHAQIKTSLHRLKPDTVPAPCCVPASYNPMVLIQKTDTGVSLQTYDDLLAKDCHCI

GLP-1 activity (EC50, nM): intracellular cAMP in HEK293 cells with high GLP-1R expression [1]: 0.124 nM
B7: GLP-1-Fc-GDF15 fusion protein D13 (Fc fusion)
chain: B6 chain with A24Q

GLP-1 activity (EC50, nM): intracellular cAMP in HEK293 cells with high GLP-1R expression [1]: 0.183 nM
B8: GLP-1-Fc-GDF15 fusion protein D14 (Fc fusion)
chain: B6 chain with I23V, A24Q
